US5547843

Tested on: E. coli single-stranded DNA-binding protein (SSB) (Escherichia coli)
Conditions: saturating ratio inferred from priming titration (mass ratio SSB:DNA about 2.5); 40 mM Tris-Cl pH 7.5, 50 mM NaCl, 10 mM MgCl2, 0 C; indirect functional …

## M13 single-stranded viral DNA
  binding (nt per SSB monomer): 22
